The values that follow come from patent US20030049646A1 (METROHEALTH SYSTEM, published 2003).

The labels stand for the following.
B2: HERG N-terminus (amino acids 1-396), in pGBT9 (other, UniProt P04386 1-147, looked up)
chain: MKLLSSIEQACDICRLKKLKCSKEKPKCAKCLKNNWECRYSPKTKRSPLTRAHLTEVESRLERLEQLFLLIFPREDLDMILKMDSLQDIKALLTGLFVQDNVNKDAVTDRLASVETDMPLTLRQHRISATSSSEESSNKGQRQLTVSMPVRRGHVAPQNTFLDTIIRKFEGQSRKFIIANARVENCAVIYCNDGFCELCGYSRAEVMQRPCTCDFLHGPRTQRRAAAQIAQALLGAEERKVEIAFYRKDGSCFLCLVDVVPVKNEDGAVIMFILNFEVVMEKDMVGSPAHDTNHRGPPTSWLAPGRAKTFRLKLPALLALTARESSVRSGGAGGAGAPGAVVVDVDLTPAAPSSESLALDEVTAMDNHVAGLGPAEERRALVGPGSPPRSAPGQLPSPRAHSLNPDASGSSCSLARTRSRESCASVRRASSADDIEAMRAGVLPPPPRHASTGAMHPLRSGLLNSTSDSDLVRYRTISKIPQITLNFVDLKGDPFLASPTSDREIIAPKIKERTHNVTEKVTQVLSLGADVLPEYKLQAPRIH
notes: also called N-terminus of the delayed rectifier K+ channel, HERG

What all share (experiment): yeast two-hybrid (Y190, pGAD10 x pGBT9), β-galactosidase filter assay
In assay [1] the target is T1, human Gu binding protein (GBP), in pGAD10 (human, UniProt O75925 55-651, limits assumed).
T1 construct: Comparison protein, about 50% homologous to KChAP
The method, then:
(§1) In the indirect procedure, the yeast Matchmaker Two-Hybrid System Clontech and cDNA molecules encoding KChAP and KChAP-Y were used. The binding specificity between full length KChAP or KChAP-Y and the following Kvα, Kvβ and other K+ channel subunit fragments were determined: Kvβ1.2 (amino acids 1-408), Kvβ1.2-N terminus (amino acids 1-79), Kvβ1C (carboxyl terminal 329 amino acids of the Kvβ1 subfamily), Kvβ2 (amino acids 1-367); Kv1.1-N terminus (amino acids 1-168), Kv1.2 N-terminus (amino acids 1-124), Kv1.4 N-terminus (amino acids 1-305), Kv1.4 C-terminus (amino acids 562-654), Kv1.5 N-terminus (amino acids 1-248), Kv2.1 N-terminus (amino acids 1-168), Kv2.2 N-terminus (amino acids 1-185), Kv6.1 N-terminus (amino acids 1-209), Kir2.2 N-terminus (amino acids 1-86), and HERG N-terminus (amino acids 1-396). The ability of human Gα-binding protein (GBP) to bind to these fragments was also determined.
(§2) Protein-protein interactions were tested by co-transformation of the yeast host strain Y190 with a pGAD10 plasmid containing inserts encoding KChAP-Y, KChAP or GBP with a pGBT9 plasmid containing an insert encoding one of the K+ channel protein fragments. pGBT9 is a GAL4 DNA binding domain [BD] vector. Co-transformants were plated on medium lacking trp and leu and grown for 2.5 days at 30° C. Yeast colonies were lifted to paper filters and assayed for β-galactosidase activity. Appearance of blue color within 8 hours was scored as a positive interaction between the proteins encoded by the two plasmids.

The target of assay [2] is T2, KChAP (K+ Channel Associated Protein), full length, in pGAD10 (rat, UniProt O70260 55-628).
T2 construct: Yeast two-hybrid construct; also called full length KChAP
T2 sequence: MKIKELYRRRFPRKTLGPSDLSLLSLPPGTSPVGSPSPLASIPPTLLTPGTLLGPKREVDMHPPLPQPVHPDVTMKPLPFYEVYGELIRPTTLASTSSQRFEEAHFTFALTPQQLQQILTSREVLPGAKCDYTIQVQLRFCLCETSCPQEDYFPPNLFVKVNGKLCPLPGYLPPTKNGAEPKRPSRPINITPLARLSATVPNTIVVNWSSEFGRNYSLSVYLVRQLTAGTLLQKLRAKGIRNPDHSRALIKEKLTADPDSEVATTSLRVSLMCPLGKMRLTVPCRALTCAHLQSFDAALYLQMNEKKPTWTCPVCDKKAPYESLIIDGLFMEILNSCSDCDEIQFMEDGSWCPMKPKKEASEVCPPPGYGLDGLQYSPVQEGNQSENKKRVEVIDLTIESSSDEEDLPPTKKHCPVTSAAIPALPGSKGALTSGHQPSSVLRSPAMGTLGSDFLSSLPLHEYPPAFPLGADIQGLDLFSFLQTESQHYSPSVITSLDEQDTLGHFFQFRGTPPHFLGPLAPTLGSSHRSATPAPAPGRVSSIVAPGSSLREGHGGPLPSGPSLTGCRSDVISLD
The procedure: as §1, §2

Assay [3] has as its target B2. The method, then:
as §1, §2

T1 sequence (O75925 55-651 limits assumed): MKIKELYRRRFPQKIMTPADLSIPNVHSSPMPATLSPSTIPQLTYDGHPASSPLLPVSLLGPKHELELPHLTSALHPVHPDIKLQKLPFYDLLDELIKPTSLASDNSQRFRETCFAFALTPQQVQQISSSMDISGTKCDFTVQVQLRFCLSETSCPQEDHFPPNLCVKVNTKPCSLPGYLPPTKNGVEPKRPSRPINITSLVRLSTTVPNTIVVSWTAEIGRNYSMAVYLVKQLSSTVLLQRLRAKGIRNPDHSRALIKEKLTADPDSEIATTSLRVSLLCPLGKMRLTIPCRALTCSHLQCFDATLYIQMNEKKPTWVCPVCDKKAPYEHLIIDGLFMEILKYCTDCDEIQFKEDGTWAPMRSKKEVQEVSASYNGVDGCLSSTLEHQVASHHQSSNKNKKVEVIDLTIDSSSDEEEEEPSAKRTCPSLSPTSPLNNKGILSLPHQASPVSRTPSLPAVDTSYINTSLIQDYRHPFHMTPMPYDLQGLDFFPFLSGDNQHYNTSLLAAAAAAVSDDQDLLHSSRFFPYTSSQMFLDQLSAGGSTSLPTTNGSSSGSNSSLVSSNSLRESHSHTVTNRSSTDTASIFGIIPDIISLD

B1: Kvβ1C (carboxyl terminal 329 amino acids of the Kvβ1 subfamily), in pGBT9 (other, UniProt P04386 1-147, looked up)
chain: MKLLSSIEQACDICRLKKLKCSKEKPKCAKCLKNNWECRYSPKTKRSPLTRAHLTEVESRLERLEQLFLLIFPREDLDMILKMDSLQDIKALLTGLFVQDNVNKDAVTDRLASVETDMPLTLRQHRISATSSSEESSNKGQRQLTVSHRNLGKSGLRVSCLGLGTWVTFGGQISDEVAERLMTIAYESGVNLFDTAEVYAAGKAEVILGSIIKKKGWRRSSLVITTKLYWGGKAETERGLSRKHIIEGLKGSLQRLQLEYVDVVFANRPDSNTPMEEIVRAMTHVINQGMAMYWGTSRWSAMEIMEAYSVARQFNMIPPVCEQAEYHLFQREKVEVQLPELYHKIGVGAMTWSPLACGIISGKYGNGVPESSRASLKCYQWLKERIVSEEGRKQQNKLKDLSPIAERLGCTLPQLAVAWCLRNEGVSSVLLGSSTPEQLIENLGAIQVLPKMTSHVVNEIDNILRNKPYSKKDYRS
notes: also called C-terminus of Kvβ1
With B1, in assay [1], the binding result is “no binding”.
In the case of B2, the binding result in assay [2] and in assay [1] was “no binding” throughout.

B3: KChAP-Y (partial clone of KChAP from W310 to the C-terminus), in pGAD10 (other, not shown: large carriers)
chain: WTCPVCDKKAPYESLIIDGLFMEILNSCSDCDEIQFMEDGSWCPMKPKKEASEVCPPPGYGLDGLQYSPVQEGNQSENKKRVEVIDLTIESSSDEEDLPPTKKHCPVTSAAIPALPGSKGALTSGHQPSSVLRSPAMGTLGSDFLSSLPLHEYPPAFPLGADIQGLDLFSFLQTESQHYSPSVITSLDEQDTLGHFFQFRGTPPHFLGPLAPTLGSSHRSATPAPAPGRVSSIVAPGSSLREGHGGPLPSGPSLTGCRSDVISLD
notes: also called KChAP-Y plasmid
Take B3: in assay [3], the binding result is “no binding”.

B4: Kv2.1 N-terminus (amino acids 1-168), in pGBT9 (other, UniProt P04386 1-147, looked up)
chain: MKLLSSIEQACDICRLKKLKCSKEKPKCAKCLKNNWECRYSPKTKRSPLTRAHLTEVESRLERLEQLFLLIFPREDLDMILKMDSLQDIKALLTGLFVQDNVNKDAVTDRLASVETDMPLTLRQHRISATSSSEESSNKGQRQLTVSMPAGMTKHGSRSTSSLPPEPMEIVRSKACSRRVRLNVGGLAHEVLWRTLDRLPRTRLGKLRDCNTHDSLLQVCDDYSLEDNEYFFDRHPGAFTSILNFYRTGRLHMMEEMCALSFSQELDYWGIDEIYLESCCQARYHQKKEQMNEELKREAETLREREGEEFDNTCC
As for B4, the binding result in assay [1] is recorded as “no binding”.
